In article PMC6542653:
Substitutions are numbered along the chain they refer to.

What was measured:
[1] = target: T1, CytR DNA-binding domain double mutant (DM) (UniProt P0ACN7 1-66, A29V;A48M); test: fluorescence anisotropy
T1 sequence: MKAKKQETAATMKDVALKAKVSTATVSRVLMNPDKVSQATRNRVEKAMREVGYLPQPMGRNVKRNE

[2] = target: T2, CytR DNA-binding domain wild type (UniProt P0ACN7 1-66); test: fluorescence anisotropy
T2 sequence: T1 sequence with V29A, M48A

B1: udp half-site (udpO) (dsDNA)
DNA 1: ATTTATGCAACGCA
DNA 2: TGCGTTGCATAAAT
- binding result [1]: binds
- binding result [2]: binds
